For assay [1], the target named is T1, SUDV GPdTM (Sudan virus (SUDV), UniProt Q66814 33-637).
T1 sequence: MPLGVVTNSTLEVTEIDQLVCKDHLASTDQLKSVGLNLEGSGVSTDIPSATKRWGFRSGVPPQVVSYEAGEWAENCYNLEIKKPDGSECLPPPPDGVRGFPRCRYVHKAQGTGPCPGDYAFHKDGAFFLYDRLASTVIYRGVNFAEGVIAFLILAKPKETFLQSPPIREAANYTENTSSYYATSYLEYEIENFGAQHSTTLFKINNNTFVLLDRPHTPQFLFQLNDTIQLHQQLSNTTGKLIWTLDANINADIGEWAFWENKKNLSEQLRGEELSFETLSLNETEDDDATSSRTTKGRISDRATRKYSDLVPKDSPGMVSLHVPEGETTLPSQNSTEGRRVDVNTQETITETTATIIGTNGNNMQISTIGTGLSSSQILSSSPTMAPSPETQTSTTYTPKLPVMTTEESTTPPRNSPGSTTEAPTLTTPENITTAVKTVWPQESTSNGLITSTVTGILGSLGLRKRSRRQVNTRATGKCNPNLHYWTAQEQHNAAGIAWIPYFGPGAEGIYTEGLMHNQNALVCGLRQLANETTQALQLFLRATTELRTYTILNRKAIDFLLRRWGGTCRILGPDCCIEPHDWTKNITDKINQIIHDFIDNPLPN

Assay [2] has as its target SUDV GPddmuc (Sudan virus (SUDV), UniProt Q66814 33-632).
Assay [3] deals with T2, MARV GPddmuc (Marburg virus (MARV), UniProt P35253 19-637).
T2 construct: also called Marburg virus glycoprotein GPddmuc
The assay is described as follows: ELISA, purified GPddmuc immobilized, serial dilutions of purified mouse mAb. A general note: An ELISA detects its analyte on a solid surface through an enzyme-linked reagent.

A word on the EC50: it is the concentration that produces a half-maximal response. A higher EC50 goes with a need for much substance.

Bounds are passed on as bounds.

B1: murine monoclonal antibody 8C4 (antibody, V domains shown)
VH: EVQLQESGPELKKPGETVKISCKASGYTFTTYGMSWVKQAPGKGLKWMGRINTYSGVPTYADEFKGRFAFSLENSASTAYLQINNLKNEDTATYFCARGDGGHWFANWGQGTLVTVSA
VL: DIQMTQSPSSLSASLGGKVTITCKASQDINKNIAWYQHKPGKGPRLLIWYKSALQPGIPSRFSGSGSGRDYSFSISNLEPEDIATYSCLQYDNLPPTFGGGTKLEIKR
notes: also called m8C4
Consider B1, for which, in assay [1], the EC50 is 0.15 µg/mL.

B2: murine monoclonal antibody 2D8 (antibody, V domains shown)
VH: EVQLQESGGELVRPGTSVKISCKASGYTFTNFWLGWIKERPGHGLEWIGDIYPGGHYTNYNENFKGKATLTADTSSNTAYMQVSSLTSEDSAVYFCFTQYYDMDYWGQGTSVTVSS
VL: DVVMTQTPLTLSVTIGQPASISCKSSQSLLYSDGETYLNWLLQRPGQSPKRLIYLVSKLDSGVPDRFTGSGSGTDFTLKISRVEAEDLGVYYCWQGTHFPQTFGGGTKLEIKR
Regarding B2, in assay [1], the EC50 was more than 10 µg/mL.

B3: murine monoclonal antibody 17C6 (antibody, V domains shown)
VH: EVQLQESGPGLVQPSQSLSITCTVSGFSLTSYGVHWVRQSPGKGLEWLGVIWSGGSTDYNAAFISRLSISKDNSKSQVFFKMNSLQADDTAIYYCARNWFDYDNYYSMDYWGQGTSVTVSS
VL: DIQMTQTTSSLSASLGDRVTISCRASQDISNYLNWYQQKPDGTVKLLIYYTSRLHSGVPSRFSGSGSGTDFSLTISNQEPEDIATYYCQQYSNLPWTFGGGTKLEIKR
Molecule B3 displayed an EC50 in assay [1] of 2 µg/mL.

B4: murine monoclonal antibody 4B8 (antibody, V domains shown)
VH: EVQLQESGPGILQPSQTLSLTCSFSGFSLRTLGMGVGWIRQSSGKGLEWLAHIWWSDENYYNPALKSRLTISKDTSKNQVFLRIANVDTAETATYYCARIAYDGYFDYWGQGTSLTVSS
VL: KFPSQLLLLLLFGIPGDRVTITCKASEDIYNRLAWYQQKPGNAPRLLISGATSLETGVPSRFSGSGSGKDYTLSITSLQTEDVATYYCQQYWTTPWTFGGGTKLEIKR
notes: also called m4B8
With B4, the results for the EC50 in assay [2] and in assay [1] were 0.095 µg/mL and 0.088 µg/mL, respectively. The binding result in assay [3] is on record as “no binding”.

B5: murine monoclonal antibody 16G8 (antibody, V domains shown)
VH: EVQLQESGPGLVKPGASVKISCKASGYSFTGYYMNWVKQSPEKSLEWIGEINPSTGGTTYNQKFKAKATLTVDKSSSTAYMQLKSLTSEDSAVYYCVRYSHYYGSGSWYFDVWGTGTTVTVSS
VL: DIQMTQSPASLSASVGETVTITCRASENIYSNLAWYQQKQGKSPQLLVNAATNLADGVPSRFSGSGSGTQFSLKINSLQPEDFGSYYCQHFYVTPYMFGSGTKLEIKR
notes: also called m16G8
B5 showed an EC50 in assay [1] of more than 10 µg/mL.

These data come from patent publication US20180237502A1 (INTEGRATED BIOTHERAPEUTICS, published 2018).
